Measurements: PMC8170004 (iScience, 2021)

Key:
Human GDF8, biotinylated = target: T1, Human GDF8, biotinylated (human, UniProt O14793 267-375, biotin (Biotin Labeling Kit-NH2)); assay: ELISA
T1 sequence: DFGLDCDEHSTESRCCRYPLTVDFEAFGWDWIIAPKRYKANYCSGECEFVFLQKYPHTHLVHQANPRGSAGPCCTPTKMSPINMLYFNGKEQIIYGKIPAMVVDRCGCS

[1] = target: T2, Human GDF11, biotinylated (human, UniProt O95390 299-407, biotin (Biotin Labeling Kit-NH2)); assay: ELISA
T2 sequence: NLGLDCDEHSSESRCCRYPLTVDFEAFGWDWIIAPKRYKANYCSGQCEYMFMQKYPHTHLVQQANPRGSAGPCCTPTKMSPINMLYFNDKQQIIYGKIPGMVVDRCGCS

B1: Bivalent Human FSTL3-Fc (Fc fusion)
chain: MGSGNPAPGGVCWLQQGQEATCSLVLQTDVTRAECCASGNIDTAWSNLTHPGNKINLLGFLGLVHCLPCKDSCDGVECGPGKACRMLGGRPRCECAPDCSGLPARLQVCGSDGATYRDECELRAARCRGHPDLSVMYRGRCRKSCEHVVCPRPQSCVVDQTGSAHCVVCRAAPCPVPSSPGQELCGNNNVTYISSCHMRQATCFLGRSIGVRHAGSCAGTPEEPPGGESAEEEENFV
- binding result (Human GDF8, biotinylated): binds
- binding result [1]: binds
